B1: H0610-G1dh/none-Hi-Kn010G3/L0079-k0 (antibody, V domains shown)
VH: QVQLVQSGAEVKKPGASVKVSCKASGYTFTDYEMHWIRQPPGQGLEWIGAIDGKTPDTAYSQKFKGRVTLTADKSTSTAYMELSSLTSEDTAVYYCTRFYSYTYWGQGTLVTVSS
VL: DIVMTQSPLSLPVTPGEPASISCRSSQSLVHSNRNTYIHWYQQKPGQAPRLLIYKVSNRFSGVPDRFSGSGSGTDFTLKISRVEAEDVGVYYCGQGTQVPYTFGQGTKLEIK
notes: one-arm
B2: H0610-G1dh/none-Hi-Kn010G3/L0122-k0 (antibody, V domains shown)
VH: QVQLVQSGAEVKKPGASVKVSCKASGYTFTDYEMHWIRQPPGQGLEWIGAIDGKTPDTAYSQKFKGRVTLTADKSTSTAYMELSSLTSEDTAVYYCTRFYSYTYWGQGTLVTVSS
VL: DIVMTQSPLSLPVTPGEPASISCRSSQSLVHSNRNTYLHWYQQKPGQAPRLLIYKVSNRISGVPDRFSGSGSGTDFTLKISRVEAEDVGVYYCGQGTQVPYTFGQGTKLEIK
notes: one-arm
B3: H0610-G1dh/none-Hi-Kn010G3/L0090-k0 (antibody, V domains shown)
VH: QVQLVQSGAEVKKPGASVKVSCKASGYTFTDYEMHWIRQPPGQGLEWIGAIDGKTPDTAYSQKFKGRVTLTADKSTSTAYMELSSLTSEDTAVYYCTRFYSYTYWGQGTLVTVSS
VL: DIVMTQSPLSLPVTPGEPASISCRSSQSLVHSNRNTYLMWYQQKPGQAPRLLIYKVSNRFSGVPDRFSGSGSGTDFTLKISRVEAEDVGVYYCGQGTQVPYTFGQGTKLEIK
notes: one-arm
B4: H0610-G1dh/none-Hi-Kn010G3/L0106-k0 (antibody, V domains shown)
VH: QVQLVQSGAEVKKPGASVKVSCKASGYTFTDYEMHWIRQPPGQGLEWIGAIDGKTPDTAYSQKFKGRVTLTADKSTSTAYMELSSLTSEDTAVYYCTRFYSYTYWGQGTLVTVSS
VL: DIVMTQSPLSLPVTPGEPASISCRSSQSLVHSNRNTYLHWYQQKPGQAPRLLIYKVSHRFSGVPDRFSGSGSGTDFTLKISRVEAEDVGVYYCGQGTQVPYTFGQGTKLEIK
notes: one-arm
B5: H0610-G1dh/none-Hi-Kn010G3/L0107-k0 (antibody, V domains shown)
VH: QVQLVQSGAEVKKPGASVKVSCKASGYTFTDYEMHWIRQPPGQGLEWIGAIDGKTPDTAYSQKFKGRVTLTADKSTSTAYMELSSLTSEDTAVYYCTRFYSYTYWGQGTLVTVSS
VL: DIVMTQSPLSLPVTPGEPASISCRSSQSLVHSNRNTYLHWYQQKPGQAPRLLIYKVSIRFSGVPDRFSGSGSGTDFTLKISRVEAEDVGVYYCGQGTQVPYTFGQGTKLEIK
notes: one-arm
B6: H0610-G1dh/none-Hi-Kn010G3/L0120-k0 (antibody, V domains shown)
VH: QVQLVQSGAEVKKPGASVKVSCKASGYTFTDYEMHWIRQPPGQGLEWIGAIDGKTPDTAYSQKFKGRVTLTADKSTSTAYMELSSLTSEDTAVYYCTRFYSYTYWGQGTLVTVSS
VL: DIVMTQSPLSLPVTPGEPASISCRSSQSLVHSNRNTYLHWYQQKPGQAPRLLIYKVSNRGSGVPDRFSGSGSGTDFTLKISRVEAEDVGVYYCGQGTQVPYTFGQGTKLEIK
notes: one-arm
B7: H0610-G1dh/none-Hi-Kn010G3/L0093-k0 (antibody, V domains shown)
VH: QVQLVQSGAEVKKPGASVKVSCKASGYTFTDYEMHWIRQPPGQGLEWIGAIDGKTPDTAYSQKFKGRVTLTADKSTSTAYMELSSLTSEDTAVYYCTRFYSYTYWGQGTLVTVSS
VL: DIVMTQSPLSLPVTPGEPASISCRSSQSLVHSNRNTYLQWYQQKPGQAPRLLIYKVSNRFSGVPDRFSGSGSGTDFTLKISRVEAEDVGVYYCGQGTQVPYTFGQGTKLEIK
notes: one-arm
B8: H0610-G1dh/none-Hi-Kn010G3/L0091-k0 (antibody, V domains shown)
VH: QVQLVQSGAEVKKPGASVKVSCKASGYTFTDYEMHWIRQPPGQGLEWIGAIDGKTPDTAYSQKFKGRVTLTADKSTSTAYMELSSLTSEDTAVYYCTRFYSYTYWGQGTLVTVSS
VL: DIVMTQSPLSLPVTPGEPASISCRSSQSLVHSNRNTYLNWYQQKPGQAPRLLIYKVSNRFSGVPDRFSGSGSGTDFTLKISRVEAEDVGVYYCGQGTQVPYTFGQGTKLEIK
notes: one-arm
B9: H0610-G1dh/none-Hi-Kn010G3/L0085-k0 (antibody, V domains shown)
VH: QVQLVQSGAEVKKPGASVKVSCKASGYTFTDYEMHWIRQPPGQGLEWIGAIDGKTPDTAYSQKFKGRVTLTADKSTSTAYMELSSLTSEDTAVYYCTRFYSYTYWGQGTLVTVSS
VL: DIVMTQSPLSLPVTPGEPASISCRSSQSLVHSNRNTYLEWYQQKPGQAPRLLIYKVSNRFSGVPDRFSGSGSGTDFTLKISRVEAEDVGVYYCGQGTQVPYTFGQGTKLEIK
notes: one-arm
B10: H0610-G1dh/none-Hi-Kn010G3/L0104-k0 (antibody, V domains shown)
VH: QVQLVQSGAEVKKPGASVKVSCKASGYTFTDYEMHWIRQPPGQGLEWIGAIDGKTPDTAYSQKFKGRVTLTADKSTSTAYMELSSLTSEDTAVYYCTRFYSYTYWGQGTLVTVSS
VL: DIVMTQSPLSLPVTPGEPASISCRSSQSLVHSNRNTYLHWYQQKPGQAPRLLIYKVSFRFSGVPDRFSGSGSGTDFTLKISRVEAEDVGVYYCGQGTQVPYTFGQGTKLEIK
notes: one-arm
B11: H0610-G1dh/none-Hi-Kn010G3/L0089-k0 (antibody, V domains shown)
VH: QVQLVQSGAEVKKPGASVKVSCKASGYTFTDYEMHWIRQPPGQGLEWIGAIDGKTPDTAYSQKFKGRVTLTADKSTSTAYMELSSLTSEDTAVYYCTRFYSYTYWGQGTLVTVSS
VL: DIVMTQSPLSLPVTPGEPASISCRSSQSLVHSNRNTYLLWYQQKPGQAPRLLIYKVSNRFSGVPDRFSGSGSGTDFTLKISRVEAEDVGVYYCGQGTQVPYTFGQGTKLEIK
notes: one-arm
B12: H0610-G1dh/none-Hi-Kn010G3/L0117-k0 (antibody, V domains shown)
VH: QVQLVQSGAEVKKPGASVKVSCKASGYTFTDYEMHWIRQPPGQGLEWIGAIDGKTPDTAYSQKFKGRVTLTADKSTSTAYMELSSLTSEDTAVYYCTRFYSYTYWGQGTLVTVSS
VL: DIVMTQSPLSLPVTPGEPASISCRSSQSLVHSNRNTYLHWYQQKPGQAPRLLIYKVSNRASGVPDRFSGSGSGTDFTLKISRVEAEDVGVYYCGQGTQVPYTFGQGTKLEIK
notes: one-arm
B13: H0610-G1dh/none-Hi-Kn010G3/L0082-k0 (antibody, V domains shown)
VH: QVQLVQSGAEVKKPGASVKVSCKASGYTFTDYEMHWIRQPPGQGLEWIGAIDGKTPDTAYSQKFKGRVTLTADKSTSTAYMELSSLTSEDTAVYYCTRFYSYTYWGQGTLVTVSS
VL: DIVMTQSPLSLPVTPGEPASISCRSSQSLVHSNRNTYVHWYQQKPGQAPRLLIYKVSNRFSGVPDRFSGSGSGTDFTLKISRVEAEDVGVYYCGQGTQVPYTFGQGTKLEIK
notes: one-arm
B14: H0610-G1dh/none-Hi-Kn010G3/L0115-k0 (antibody, V domains shown)
VH: QVQLVQSGAEVKKPGASVKVSCKASGYTFTDYEMHWIRQPPGQGLEWIGAIDGKTPDTAYSQKFKGRVTLTADKSTSTAYMELSSLTSEDTAVYYCTRFYSYTYWGQGTLVTVSS
VL: DIVMTQSPLSLPVTPGEPASISCRSSQSLVHSNRNTYLHWYQQKPGQAPRLLIYKVSWRFSGVPDRFSGSGSGTDFTLKISRVEAEDVGVYYCGQGTQVPYTFGQGTKLEIK
notes: one-arm
B15: H0610-G1dh/none-Hi-Kn010G3/L0113-k0 (antibody, V domains shown)
VH: QVQLVQSGAEVKKPGASVKVSCKASGYTFTDYEMHWIRQPPGQGLEWIGAIDGKTPDTAYSQKFKGRVTLTADKSTSTAYMELSSLTSEDTAVYYCTRFYSYTYWGQGTLVTVSS
VL: DIVMTQSPLSLPVTPGEPASISCRSSQSLVHSNRNTYLHWYQQKPGQAPRLLIYKVSTRFSGVPDRFSGSGSGTDFTLKISRVEAEDVGVYYCGQGTQVPYTFGQGTKLEIK
notes: one-arm
B16: H0610-G1dh/none-Hi-Kn010G3/L0109-k0 (antibody, V domains shown)
VH: QVQLVQSGAEVKKPGASVKVSCKASGYTFTDYEMHWIRQPPGQGLEWIGAIDGKTPDTAYSQKFKGRVTLTADKSTSTAYMELSSLTSEDTAVYYCTRFYSYTYWGQGTLVTVSS
VL: DIVMTQSPLSLPVTPGEPASISCRSSQSLVHSNRNTYLHWYQQKPGQAPRLLIYKVSMRFSGVPDRFSGSGSGTDFTLKISRVEAEDVGVYYCGQGTQVPYTFGQGTKLEIK
notes: one-arm

Biological target: T1, human GPC3 (human, UniProt P51654 25-563)
T1 construct: range 25-563; soluble analyte; also called soluble human GPC3; glypican 3
T1 sequence (P51654 25-563 limits assumed): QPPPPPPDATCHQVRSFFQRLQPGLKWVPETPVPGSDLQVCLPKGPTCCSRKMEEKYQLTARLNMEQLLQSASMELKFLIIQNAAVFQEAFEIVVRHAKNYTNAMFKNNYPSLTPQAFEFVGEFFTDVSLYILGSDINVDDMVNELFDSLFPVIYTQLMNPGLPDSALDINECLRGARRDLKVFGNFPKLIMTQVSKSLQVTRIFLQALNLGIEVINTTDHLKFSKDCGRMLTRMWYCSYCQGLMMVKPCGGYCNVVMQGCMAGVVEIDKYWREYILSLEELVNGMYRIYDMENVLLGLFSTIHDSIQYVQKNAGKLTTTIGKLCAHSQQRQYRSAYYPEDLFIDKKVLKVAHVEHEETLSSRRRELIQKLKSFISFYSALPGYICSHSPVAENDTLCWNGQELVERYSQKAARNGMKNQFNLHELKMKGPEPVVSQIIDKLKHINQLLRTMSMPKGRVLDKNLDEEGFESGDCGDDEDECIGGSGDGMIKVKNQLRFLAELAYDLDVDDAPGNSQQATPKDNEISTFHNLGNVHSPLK
Assay: SPR

Row | Binder | Kd [nM]
1 | B1 | 4.23
2 | B2 | 2.42
3 | B3 | 1.12
4 | B4 | 5.66
5 | B5 | 4.38
6 | B6 | 4.54
7 | B7 | 0.106
8 | B8 | 5.43
9 | B9 | 1.17
10 | B10 | 5.9
11 | B11 | 5.24
12 | B12 | 4.92
13 | B13 | 3.43
14 | B14 | 4.34
15 | B15 | 4.82
16 | B16 | 5.7

Reference: patent US20250066503A1, “CELL INJURY INDUCING THERAPEUTIC DRUG FOR USE IN CANCER THERAPY” (CHUGAI SEIYAKU KABUSHIKI KAISHA, priority 2016, published 2025)
